Assay results reported in patent US20250171545A1.

Biological target: hFGFR1c and hKLB co-expressed on HEK293 cells (human) (UniProt P11362)
Test: cell-based or functional assay

REGN4366 (bispecific antibody)
% activation, SRE-luciferase reporter, normalized against soluble FGF21: 19%
